Reference: patent US20240343821A1, “OFATUMUMAB FOR TREATING PEDIATRIC MS” (NOVARTIS AG, priority 2021, published 2024)

What was measured:
Format in all cases: in vivo, human
[1] = Ofatumumab half-life at steady state after subcutaneous administration; conditions: following subcutaneous administration of repeated 20 mg doses
Procedure: The half-life of ofatumumab at steady state can be approximately 16 days, in particular following subcutaneous administration of repeated 20 mg doses.

[2] = Immunoglobulin (IgG) levels under long-term ofatumumab therapy; conditions: in the long run, long-term treatment
Description: Generally, side effects and adverse events associated with B cell-depleting therapies such as ocrelizumab therapy are reported to be associated with a reduction of immunoglobulins (e.g. IgG).

B cells = assay: B cell depletion under the claimed ofatumumab dosage regimen; conditions: loading dose weeks 0, 1, 2; maintenance from week 8 every six weeks
Description: This has been completely surprising because there are significant differences between adult patients and pediatric patients. These differences relate, inter alia, to physiology, metabolism, and body weight. In this context, it is also noted that there is a higher baseline B cell count in children compared to adults and, therefore, it would not have been expected that the claimed dosage regimen is able to consistently deplete B cells in patients as defined in the claims.

[3] = Multiple Sclerosis Impact Scale (MSIS-29) under ofatumumab; conditions: administration of ofatumumab
Procedure: The MSIS-29 version 2 is a 29-item, self-administered questionnaire that includes 2 domains: physical and psychological. Responses were captured on a 4-point ordinal scale ranging from 1 (not at all) to 4 (extremely), with higher scores reflecting greater impact on day-to-day life. The MSIS-29 takes about 5 minutes to complete and the questions are designed to determine the patient's views about the impact of MS on their day-to-day life during the past 2 weeks. Reference is made to Hobart J and Cano S (2009), “Improving the evaluation of therapeutic interventions in multiple sclerosis: the role of new psychometric methods”, Health Technol Assess; 13(12):iii, ix-x, […] to Hobart J, Lamping D, Fitzpatrick R, et al (2001), “The Multiple Sclerosis Impact Scale (MSIS-29): a new patient-based outcome measure”, Brain; 124(Pt 5):962-73.

Substance: Ofatumumab
- half-life at steady state [1]: approximately 16 days
- reduction of immunoglobulins (e.g. IgG) [2]: does not cause reduction of immunoglobulins
- depletion of B cells (B cell count threshold) (B cells): < 8 cells per microliter
- MS impact scale MSIS-29 [3]: advantageous reduction
